Data on four molecules can be found in patent publication US20210032351A1 (XDCEXPLORER SHANGHAI, published 2021).

In assay [1] the target is T1, human EGFRvIII-hFc protein (human, UniProt P00533 25-645).
T1 construct: extracellular domain; also called immunogen A; hFc-tagged EGFRvIII protein; not shown: human IgG Fc fragment (hFc) of the pCpC vector
Put plainly: ELISA, EGFRvIII-hFc coated. The procedure:
(§1) The purified immunogen A (EGFRvIII-hFc) obtained in example 1 (for the preparation method, see step (I) in example 1) is diluted with PBS to a final concentration of 1.0 μg/mL, and then added to a 96-well ELISA plate at 100 μl/well. The plate is sealed with a plastic film and incubated at 4° C. overnight. The next day, the plate is washed twice with a plate washing solution [PBS+0.01% (v/v) Tween20], and added with a blocking solution [PBS+0.01% (v/v) Tween20+1% (w/w) BSA] for blocking 2 hours at room temperature. […] The plate is incubated for 2 hours at 37° C., and then washed 3 times with the plate washing solution [PBS+0.01% (v/v) Tween20]. The plate is added with an HRP (horseradish peroxidase) labeled secondary antibody (purchased from Sigma), incubated at 37° C. for 2 hours, and then washed 3 times with the plate washing solution [PBS+0.01% (v/v) Tween20]. The plate is added with 100 μl of TMB substrate/well, incubated for 30 minutes at room temperature, and then added with 100 μl of stopping solution (1.0N HCl)/well. A450 nm value is read using an ELISA plate reader (SpectraMax 384plus, purchased from Molecular Device), and the results are shown in FIG. 11 and table 19.

Assay [2] deals with T1, human EGFRvIII-hFc protein. In words: ELISA, EGFRvIII-hFc coated. The procedure: The purified humanized anti-EGFRvIII antibody obtained in example 12 is reacted with a human EGFRvIII-hFc protein.
as §1, with “Device).” for “Device), and the results are shown in FIG. 11 and table 19.”
The source holds these as a separate data set.

Assay [3] addresses T2, human EGFRvIII protein on the cell surface (human, UniProt P00533 25-1210).
T2 construct: whole, on cells; the cell line is named under assay; also called hEGFRvIII; U87MG-hEGFRvIII
Put plainly: FACS on U87MG-EGFRvIII cells. The procedure:
The preparation of U87MG-EGFRvIII required for FACS detection is as described in the preparation of the immunogen B in example 1. Normal human primary hepatocytes are purchased from BioreclamationIVT, and A431 tumor cells are purchased from ATCC. The recovered hepatocytes are directly used for FACS detection, and the recovered U87MG-EGFRvIII and A431 cells are subjected to an expanded culture to 90% confluence in a T-75 cell culture flask; the medium is sucked out, and the cells are washed twice with a HBSS buffer (Hanks Balanced Salt Solution) (purchased from Invitrogen), and then treated with an enzyme-free cell dissociation solution (Versene solution: purchased from Life Technology) and collected. The cells are washed twice with the HBSS buffer and are counted, and then the cells are diluted with the HBSS buffer to 2×10⁶ cells/ml, added with 1% goat serum blocking solution, with the percentage being the mass percentage, and incubated on ice for 30 minutes, and then centrifugally washed twice with the HBSS buffer. The collected cells are resuspended to 2×10⁶ cells/mL with an FACS buffer (HBSS+2% FBS, with the percentage being the volume percentage), added to a 96-well FACS reaction plate at 100 μL/well, then added with 100 μL/well of the purified EGFRvIII antibody (samples to be tested) obtained in example 12, and incubated on ice for 2 hours. The plate is centrifugally washed twice with the FACS buffer, added with 100 μL/well of a 1:1000 diluted fluorescence (Alexa 488) labeled secondary antibody (purchased from Invitrogen), and incubated on ice for 1 hour. The plate is centrifugally washed 3 times with the FACS buffer, added with 100 μL/well of a fixing solution [4% (v/v) paraformaldehyde] to resuspend the cells, and centrifugally washed twice with the FACS buffer after 10 minutes. The cells are resuspended in 100 μL of the FACS buffer, and the results are detected and analyzed by FACS (FACS Calibur, purchased from BD). Data analysis is performed by using the software (CellQuest) to obtain the mean fluorescence intensity (MFI) of the cells. Data is further analyzed by using the software (GraphPad Prism5) to perform data fitting and calculate EC50.

The target in assay [4] is T2, human EGFRvIII protein on the cell …. Put plainly: FACS on U87MG-hEGFRvIII cells.
Assay [5] deals with T3, human wild-type EGFR protein on the cell surface (human, UniProt P00533 25-1210).
T3 construct: whole, on cells; Endogenous on A431, HEB, U87MG cells and normal human primary hepatocytes; transfected on CHOk1-EGFR cells; The cell is named under assay; also called A431; HEB
In words: FACS on A431 cells; A431 cells (large amount of wild-type EGFR on the surface). As to the method:
The cells are washed twice with the HBSS buffer and are counted, and then the cells are diluted with the HBSS buffer to 2×10⁶ cells/ml, added with 1% goat serum blocking solution, with the percentage being the mass percentage, and incubated on ice for 30 minutes, and then centrifugally washed twice with the HBSS buffer. The collected cells are suspended to 2×10⁶ cells/mL with an FACS buffer (HBSS+1% BSA, with the percentage being the mass percentage), added to a 96-well FACS reaction plate at 100 μL/well, then added with 100 μL/well of the purified EGFRvIII antibody (samples to be tested) obtained in example 2, and incubated on ice for 2 hours. The plate is centrifugally washed twice with the FACS buffer, added with 100 μL/well of a fluorescence (Alexa 488) labeled secondary antibody (purchased from Invitrogen), and then incubated on ice for 1 hour. The plate is centrifugally washed 3 times with the FACS buffer, added with 100 μL/well of a fixing solution [4% (v/v) paraformaldehyde] for suspending the cells, and centrifugally washed twice with the FACS buffer after 10 minutes. The cells are suspended in 100 μL of the FACS buffer, and the results are detected and analyzed by FACS (FACS Calibur, purchased from BD). Data analysis is performed by using the software (CellQuest) to obtain the mean fluorescence intensity (MFI) of the cells. Data is further analyzed by using the software (GraphPad Prism5) to perform data fitting and calculate EC50. […] A431 cells (human epidermal cell cancer cell lines) have a large amount of wild-type EGFR protein expressed on the surface thereof. […] U87MG cells (human glioma cell lines) have a small amount of wild-type EGFR protein expressed on the surface thereof, while HEB cells (human glioma cell lines) have a high level of wild-type EGFR protein expression on the surface thereof.

Assay [6] has as its target human wild-type EGFR protein on the cell surface (human) (UniProt P00533). In words: FACS on A431 tumor cells.
Assay [7] has as its target human EGFRvIII-hFc protein (human) (UniProt P00533). Put plainly: ELISA, EGFRvIII-hFc coated. (In general: An ELISA detects its analyte on a solid surface through an enzyme-linked reagent.)
In assay [8] the target is human EGFRvIII protein on the cell surface (human) (UniProt P00533). Put plainly: FACS on U87MG-EGFRvIII cells.
Assay [9] deals with human wild-type EGFR protein on the cell surface (human) (UniProt P00533). Put plainly: FACS on normal human primary hepatocytes.
Assay [10] has the same target. In words: FACS, MFI on A431 cells over MFI on normal primary hepatocytes.
For assay [11], the target named is EGFR-his (purchased from Sino Biological) (UniProt P00533). Put plainly: BLI (OctetRED), antibody on anti-human Fc (AHC) biosensor, EGFR-his in solution.
Assay [12] addresses EGFRvIII-his (purchased from Sino Biological) (UniProt P00533). Put plainly: BLI (OctetRED), antibody on anti-human Fc (AHC) biosensor, EGFRvIII-his in solution.

B1: Chimeric antibody 63A10 (antibody, human IgG1, V domains shown)
VH: QVQLQQSGAELARPGASVKMSCKASGYTFISFTMHWVKQRPGQGLEWIGYINPNSGYTKYNQKFKDKATLTAGQSSSTAYMQLSSLTSEDSAVYYCTRGGGRGFAYWGQGTLVTVSA
VL: DILMTQSPSSMSVSLGDTVTITCHASQDINSNIGWLQQKPGKSFKALIYHGTNLEDGVPSRFSGSGSGADYSLTISSLESEDFADYYCVQYAQFPFTFGSGTKLEIK
notes: also called c63A10A7; chimeric antibody c63A10A7
As for B1, in [1], the “OD450 nm at 0.0001 nM antibody” value stood at 0.07 OD450, the “OD450 nm at 0.001 nM antibody” value was 0.11 OD450, the “OD450 nm at 0.01 nM antibody” value is 0.37 OD450 and the “OD450 nm at 0.1 nM antibody” value is 1.05 OD450. Moreover, in assay [1], the “OD450 nm at 1 nM antibody” value stood at 3.33 OD450, the “OD450 nm at 10 nM antibody” value was 3.55 OD450 and the “OD450 nm at 100 nM antibody” value was 3.55 OD450. Moreover, in [2], the 50% effective concentration (EC50) (in general, the concentration needed to bring the measured effect to its halfway point) came to 0.22 nM and the “Maximum OD450 value” came out at 3.6 OD450. For the same molecule, in [3], the EC50 was determined as 3.8 nM and the “Maximum mean fluorescence intensity” value came to 11600 MFI. This molecule also had a concentration giving a half-maximal response (EC50) in [4] of 2.2 nM. The molecule also yielded an EC50 in assay [5] of 696 nM.

B2: Chimeric antibody 64F1 (antibody, human IgG1, V domains shown)
VH: QVQLQQSGAELARPGASVKMSCKASGYTFSSYTMHWAKQRPGQGLEWIGYINPSSGYTKYNQKFKDKATLTADKSSSTAYMQLSSLTSEDSIVYYCARGGGRGFAYWGQGTLVTVSA
VL: QIVLTQSPAIMSASPGERVTMTCSASSSVSYMYWYQQKPGSSPRLLIYDTSNLASGVPVRFSGSGSGTSYSLTISRVEAEDAATYYCQQWSSYSLTFGAGTKLELK
notes: also called clone 64F1F8
B2: in assay [1], the “OD450 nm at 0.0001 nM antibody” value stood at 0.08 OD450, the “OD450 nm at 0.001 nM antibody” value came out at 0.11 OD450, the “OD450 nm at 0.01 nM antibody” value was 0.35 OD450 and the “OD450 nm at 0.1 nM antibody” value stood at 2.23 OD450. Moreover, in assay [1], the “OD450 nm at 1 nM antibody” value worked out at 3.72 OD450, the “OD450 nm at 10 nM antibody” value turned out to be 3.78 OD450 and the “OD450 nm at 100 nM antibody” value was 3.7 OD450. This molecule displayed an EC50 in assay [4] of 2.1 nM. The concentration giving a half-maximal response (EC50) in assay [5] came out at 180 nM.

B3: Humanized antibody h75G7C6-1 (antibody, human IgG1, V domains shown)
VH: EVQLVQSGAEVKKPGASVKVSCKASGYTFTDYNMDWVKQAPGQGLEWIGDINPNNADTIYNQKFKGRVTLTVDKSTSTVYMELSSLRSEDTAVYYCARGDYDGYYPVYYAMDYWGQGTTVTVSS
VL: EIVLTQSPATLSLSPGERATLSCRASSSVSSSYLHWYQQKPGQAPRLLIYSTSNLAAGIPARFSGSGSGTDFTLTISSLEPEDFAVYYCQQYSGYPLTFGGGTKVEIK
Consider B3, for which the MFI in [6] was determined as 9780 MFI. In [7], this molecule registered an EC50 of 0.49 nM and a Maximum OD450 value of 3.41 OD450. For the same molecule, in [8], the EC50 is 4.93 nM and the Maximum mean fluorescence intensity amounted to 18300 MFI. Moreover, the MFI in [9] was found to be 277 MFI. In addition, in assay [10], the Selective window (MFI A431/Hepatocytes) was determined as 35.5 fold. Further, in assay [11], the Kd (in general, the concentration at which binding is half-saturated) is 205 nM; the dissociation rate constant (koff) (usually the first-order rate constant of dissociation) was found to be 0.00353 s⁻¹; the on-rate (kon) (in general, the second-order rate constant of association) was determined as 17200 M⁻¹ s⁻¹. In assay [12], the equilibrium dissociation constant (Kd) amounted to 1.71 nM, the koff amounted to 0.000141 s⁻¹ and the kon stood at 82800 M⁻¹ s⁻¹.

B4: Humanized antibody h75G7C6-2 (antibody, human IgG1, V domains shown)
VH: EVQLVQSGAEVKKPGASVKVSCKASGYTFTDYNMDWVKQAPGQGLEWIGDINPNNADTIYNQKFKGRVTLTVDKSTSTVYMELSSLRSEDTAVYYCARGDYDGYYPVYYAMDYWGQGTTVTVSS
VL: ENVLTQSPATLSLSPGERATLSCRASSSVSSSYLHWYQQKPGQAPRLLIFSTSNLAAGIPARFSGSGSGTDYTLTISSLEPEDFAVYYCQQYSGYPLTFGGGTKVEIK
In the case of B4, the MFI in assay [6] came to 11800 MFI. In assay [7], this molecule came in with an EC50 of 0.38 nM and a Maximum OD450 value of 3.38 OD450. Further, in [8], the EC50 was 5.67 nM and the Maximum mean fluorescence intensity came out at 18300 MFI. The molecule further gave an MFI in [9] of 250 MFI. Further, the Selective window (MFI A431/Hepatocytes) in assay [10] is 47 fold. Further, in assay [11], the Kd worked out at 200 nM, the koff worked out at 0.00405 s⁻¹ and the kon was found to be 20300 M⁻¹ s⁻¹. In assay [12], the dissociation constant (Kd) came out at 1.54 nM, the dissociation rate constant (koff) was found to be 0.00014 s⁻¹ and the kon is 90600 M⁻¹ s⁻¹.
